Data published in publication PMC12598741 (Antibody Therapeutics, 2025).

Assays:
[1] = target: T1, human tumor necrosis factor alpha (hTNF-α)-His (human, UniProt P01375); assay: BLI; settings: both partners purified
T1 construct: also called hTNF-a

[2] = target: light-chain single-domain antibody L6 (mCD16-specific VHHL); assay: BLI; settings: both partners purified

T1 sequence (P01375 whole entry): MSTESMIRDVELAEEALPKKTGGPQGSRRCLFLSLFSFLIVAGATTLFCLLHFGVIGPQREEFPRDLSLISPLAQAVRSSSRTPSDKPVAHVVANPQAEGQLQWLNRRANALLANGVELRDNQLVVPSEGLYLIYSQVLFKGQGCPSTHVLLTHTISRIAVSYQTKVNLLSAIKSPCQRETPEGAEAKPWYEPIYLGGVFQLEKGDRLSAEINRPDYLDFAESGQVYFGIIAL

Kd [2] [nM]	Binder	binding result [1]
	hIgG4 bsAb by modular replacement: golimumab (Gmab) heavy chain with L6 light chain (bispecific antibody, V domains shown) VH: QVQLVESGGGVVQPGRSLRLSCAASGFIFSSYAMHWVRQAPGNGLEWVAFMSYDGSNKKYADSVKGRFTISRDNSKNTLYLQMNSLRAEDTAVYYCARDRGIAAGGNYYYYGMDVWGQGTTVTVSS VL: EIVLTQSPGTLSLSPGERATLSCRASGSTFSSYTLAWYQQKPGQAPRLLIYIYSDGGRTSRATGIPDRFSGSGSGTDLTLTISRLEPEDFAVYYCNAESPFYDYDYWGKGTKVEIK	binds
54.3 ± 1.41	mouse CD16 (mCD16), his-tagged (receptor, UniProt P08508 31-215, looked up) ALPKAVVKLDPPWIQVLKEDMVTLMCEGTHNPGNSSTQWFHNGRSIRSQVQASYTFKATVNDSGEYRCQMEQTRLSDPVDLGVISDWLLLQTPQRVFLEGETITLRCHSWRNKLLNRISFFHNEKSVRYHHYKSNFSIPKANHSHSGDYYCKGSLGSTQHQSKPVTITVQDPATTSSISLVWYHT	
